# Measurements taken from paper PMC2754075 (Nature cell biology, 2009).
# Target: MBP-VPRBP (UniProt Q9Y4B6 1-1507)
# Assay: pull-down
# MBP-VPRBP, sequence (Q9Y4B6 whole entry): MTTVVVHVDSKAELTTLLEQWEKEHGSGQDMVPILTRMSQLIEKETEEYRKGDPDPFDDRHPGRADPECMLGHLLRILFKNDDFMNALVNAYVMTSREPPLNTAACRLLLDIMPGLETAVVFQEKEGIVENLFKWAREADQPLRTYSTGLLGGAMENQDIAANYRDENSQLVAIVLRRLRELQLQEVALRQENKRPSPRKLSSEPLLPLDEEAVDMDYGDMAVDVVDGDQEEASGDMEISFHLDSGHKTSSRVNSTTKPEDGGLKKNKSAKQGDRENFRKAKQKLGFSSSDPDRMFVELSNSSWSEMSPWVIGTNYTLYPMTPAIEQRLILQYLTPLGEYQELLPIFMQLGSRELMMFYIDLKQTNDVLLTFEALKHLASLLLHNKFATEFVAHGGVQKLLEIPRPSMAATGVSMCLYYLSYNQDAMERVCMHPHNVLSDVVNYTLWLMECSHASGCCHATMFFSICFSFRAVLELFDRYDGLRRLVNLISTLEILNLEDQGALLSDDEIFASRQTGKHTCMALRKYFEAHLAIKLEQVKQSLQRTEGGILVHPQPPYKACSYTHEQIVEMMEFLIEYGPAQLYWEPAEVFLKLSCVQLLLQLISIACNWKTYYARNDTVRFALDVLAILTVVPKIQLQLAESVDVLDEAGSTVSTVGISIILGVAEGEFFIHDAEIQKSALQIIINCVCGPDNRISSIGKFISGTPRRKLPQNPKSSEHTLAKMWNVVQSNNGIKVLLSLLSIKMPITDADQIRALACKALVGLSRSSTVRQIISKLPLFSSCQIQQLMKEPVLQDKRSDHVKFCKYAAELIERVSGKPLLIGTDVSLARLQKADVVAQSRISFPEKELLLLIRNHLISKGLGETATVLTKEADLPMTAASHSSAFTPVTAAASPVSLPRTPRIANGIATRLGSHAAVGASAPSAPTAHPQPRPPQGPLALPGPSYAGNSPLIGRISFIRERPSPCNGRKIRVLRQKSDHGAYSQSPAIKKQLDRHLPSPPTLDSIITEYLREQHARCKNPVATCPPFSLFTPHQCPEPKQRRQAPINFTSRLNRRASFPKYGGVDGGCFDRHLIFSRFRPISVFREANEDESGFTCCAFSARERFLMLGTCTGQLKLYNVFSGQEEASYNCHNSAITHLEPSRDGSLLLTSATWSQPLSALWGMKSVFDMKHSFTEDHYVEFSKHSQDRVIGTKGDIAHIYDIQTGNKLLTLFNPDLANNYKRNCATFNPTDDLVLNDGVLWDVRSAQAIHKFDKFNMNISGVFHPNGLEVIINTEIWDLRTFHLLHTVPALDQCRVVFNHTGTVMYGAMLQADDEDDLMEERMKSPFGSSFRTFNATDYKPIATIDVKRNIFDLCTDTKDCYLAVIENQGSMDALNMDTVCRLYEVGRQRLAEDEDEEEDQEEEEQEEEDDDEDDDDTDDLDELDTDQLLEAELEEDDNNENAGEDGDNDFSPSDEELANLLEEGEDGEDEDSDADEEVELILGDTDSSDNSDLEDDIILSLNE
binder,measurement,value
GST-Katanin (natural protein) MSLLMISENVKLAREYALLGNYDSAMVYYQGVLDQMNKYLYSVKDTYLQQKWQQVWQEINVEAKHVKDIMKTLESFKLDSTPLKAAQHDLPASEGEVWSMPVPVERRPSPGPRKRQSSQYSDPKSHGNRPSTTVRVHRSSAQNVHNDRGKAVRCREKKEQNKGREEKNKSPAAVTEPETNKFDSTGYDKDLVEALERDIISQNPNVRWDDIADLVEAKKLLKEAVVLPMWMPEFFKGIRRPWKGVLMVGPPGTGKTLLAKAVATECKTTFFNVSSSTLTSKYRGESEKLVRLLFEMARFYSPATIFIDEIDSICSRRGTSEEHEASRRVKAELLVQMDGVGGTSENDDPSKMVMVLAATNFPWDIDEALRRRLEKRIYIPLPSAKGREELLRISLRELELADDVDLASIAENMEGYSGADITNVCRDASLMAMRRRIEGLTPEEIRNLSKEEMHMPTTMEDFEMALKKVSKSVSAADIERYEKWIFEFGSC,binding result,binds
